Experimental findings from US6297019, “Recombinant polynucleotides encoding CYP7 promoter-binding factors” (Tularik Inc.) are described below.

The data set deals with T1, CPF (clone 113) (Homo sapiens).
T1 chain: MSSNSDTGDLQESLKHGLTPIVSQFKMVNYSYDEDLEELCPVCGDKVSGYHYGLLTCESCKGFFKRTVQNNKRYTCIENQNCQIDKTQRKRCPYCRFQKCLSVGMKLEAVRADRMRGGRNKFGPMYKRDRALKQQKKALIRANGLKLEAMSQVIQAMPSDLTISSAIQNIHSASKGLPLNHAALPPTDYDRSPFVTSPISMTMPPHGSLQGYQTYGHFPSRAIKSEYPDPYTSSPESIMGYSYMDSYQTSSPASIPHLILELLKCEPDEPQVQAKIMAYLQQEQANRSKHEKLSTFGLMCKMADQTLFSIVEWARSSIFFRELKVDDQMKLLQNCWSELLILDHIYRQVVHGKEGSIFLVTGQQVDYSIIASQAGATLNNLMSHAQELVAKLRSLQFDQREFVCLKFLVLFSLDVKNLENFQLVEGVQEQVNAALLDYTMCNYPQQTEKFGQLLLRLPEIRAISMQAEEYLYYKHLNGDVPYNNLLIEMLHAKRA
Kind of data set: EMSA; same DNA sequence as endogenous protein; exact probe not stated; complex disrupted by anti-CPF antibody. The settings on record: tags: TNT in vitro transcription/translation; label: 32P. An excerpt:
Characterization of CPF. Clone #113 encodes a full length polypeptyde of 495 amino acids, with an in-frame stop codon 30 nucleotides upstream of the first ATG. We named the protein as CPF for CYP7 Promoter-binding Factor. […] The closest homologs of CPF are the mouse version of the family, LRH-1 (SEQ ID NOS:7, 8)and a human variant, hFTF (SEQ ID NOS:9, 10). To confirm the cloned CPF is the factor responsible for the CYP7 promoter binding activity, in vitro translated CPF was used side-by-side with the HepG2 nuclear extracts in gel shift experiments. We found in vitro translated CPF recognized the same DNA sequence as the endogenous protein does and the gel shift patterns between these two appear to be identical. Antibodies raised against a peptide containing the Ftz-F1 box were used in gel shift experiments. We found the DNA-protein complex formed either with HepG2 nuclear extracts or with in vitro translated CPF was disrupted by the specific antibody but not by preimmune serum. Furthermore, the antibody recognized a hepatic-specific cellular protein that comigrates with the in vitro translated CPF. The endogenous gene product recognized by the Ftz-F1-specific antibody is apparently hepatic specific since there is no corresponding protein in 293 cells.
Background: In EMSA bound probe runs differently from free probe, usually more slowly.

B1: CYP7 promoter wild-type oligo (dsDNA)
DNA 1: TCTGATACCTGTGGACTTAGTTCAAGGCCAGTTA
DNA 2: TAACTGGCCTTGAACTAAGTCCACAGGTATCAGA
As for B1, the binding result is “binds”.
